Assay results as given in US20110142849A1 (IRM, published 2011).

T1: hAgr2 (human, UniProt O95994)
T1 construct: panel antigen of the specificity ELISA
T1 sequence (antigen, looked up): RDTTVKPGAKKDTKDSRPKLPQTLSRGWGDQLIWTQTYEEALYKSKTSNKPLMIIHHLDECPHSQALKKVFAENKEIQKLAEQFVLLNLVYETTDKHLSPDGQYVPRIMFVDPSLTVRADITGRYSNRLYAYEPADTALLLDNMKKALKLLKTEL

T2: hFGFR4 (human, UniProt P22455)
T2 construct: panel antigen of the specificity ELISA
T2 sequence (antigen, looked up): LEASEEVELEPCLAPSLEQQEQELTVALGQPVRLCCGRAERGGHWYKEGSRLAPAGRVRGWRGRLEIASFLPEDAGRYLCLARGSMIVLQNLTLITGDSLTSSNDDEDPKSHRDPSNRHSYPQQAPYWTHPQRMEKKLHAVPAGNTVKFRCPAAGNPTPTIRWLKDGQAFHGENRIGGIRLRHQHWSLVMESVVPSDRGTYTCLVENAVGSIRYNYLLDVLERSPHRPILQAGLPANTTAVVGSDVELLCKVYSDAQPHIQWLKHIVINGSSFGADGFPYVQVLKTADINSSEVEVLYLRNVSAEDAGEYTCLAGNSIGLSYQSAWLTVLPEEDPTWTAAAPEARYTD

T3: hNotch-3 NRR (human, UniProt Q9UM47)
T3 construct: panel antigen of the specificity ELISA
T3 sequence (antigen, looked up): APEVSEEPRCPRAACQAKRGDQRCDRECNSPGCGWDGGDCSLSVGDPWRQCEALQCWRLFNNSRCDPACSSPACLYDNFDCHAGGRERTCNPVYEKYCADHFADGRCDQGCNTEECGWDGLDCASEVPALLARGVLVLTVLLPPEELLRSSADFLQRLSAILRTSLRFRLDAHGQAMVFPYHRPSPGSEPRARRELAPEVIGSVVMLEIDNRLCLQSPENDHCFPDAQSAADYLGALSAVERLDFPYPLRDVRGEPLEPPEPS

T4: hGITR (human, UniProt Q9Y5U5)
T4 construct: panel antigen of the specificity ELISA
T4 sequence (antigen, looked up): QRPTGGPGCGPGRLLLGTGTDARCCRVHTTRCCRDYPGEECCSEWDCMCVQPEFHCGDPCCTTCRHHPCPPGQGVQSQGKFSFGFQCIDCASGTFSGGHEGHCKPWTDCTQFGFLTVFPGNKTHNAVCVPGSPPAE

T5: hβ-Klotho (human, UniProt Q86Z14)
T5 construct: panel antigen of the specificity ELISA
T5 sequence (antigen, looked up): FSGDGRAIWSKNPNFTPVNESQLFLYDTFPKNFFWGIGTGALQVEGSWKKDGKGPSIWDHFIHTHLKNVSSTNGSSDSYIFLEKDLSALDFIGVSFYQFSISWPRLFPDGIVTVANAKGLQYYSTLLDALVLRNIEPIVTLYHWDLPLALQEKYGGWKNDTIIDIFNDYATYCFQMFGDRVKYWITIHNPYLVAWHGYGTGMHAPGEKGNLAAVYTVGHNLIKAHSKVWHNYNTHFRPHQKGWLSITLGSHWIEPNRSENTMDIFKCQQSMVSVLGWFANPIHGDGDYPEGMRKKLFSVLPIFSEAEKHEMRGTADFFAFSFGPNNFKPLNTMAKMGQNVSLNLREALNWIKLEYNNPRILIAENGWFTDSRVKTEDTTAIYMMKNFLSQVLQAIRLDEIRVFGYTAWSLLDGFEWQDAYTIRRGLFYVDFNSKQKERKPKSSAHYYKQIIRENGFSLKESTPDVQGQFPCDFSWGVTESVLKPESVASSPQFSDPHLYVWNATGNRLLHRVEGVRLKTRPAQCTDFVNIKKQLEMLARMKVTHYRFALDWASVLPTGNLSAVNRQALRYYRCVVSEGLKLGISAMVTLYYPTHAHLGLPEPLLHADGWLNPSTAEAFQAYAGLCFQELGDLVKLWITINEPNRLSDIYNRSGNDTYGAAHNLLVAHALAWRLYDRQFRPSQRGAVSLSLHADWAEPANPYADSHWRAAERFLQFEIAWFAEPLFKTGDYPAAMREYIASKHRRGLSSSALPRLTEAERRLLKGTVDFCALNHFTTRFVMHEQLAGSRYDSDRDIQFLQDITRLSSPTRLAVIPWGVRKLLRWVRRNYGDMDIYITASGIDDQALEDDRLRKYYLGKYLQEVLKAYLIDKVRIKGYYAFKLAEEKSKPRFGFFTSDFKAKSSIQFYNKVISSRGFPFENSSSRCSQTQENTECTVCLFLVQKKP


Assays:
[1] = target: T6, recombinant human Pcsk9 (aa 31-692) with C-terminal his6 tag (human, UniProt Q8NBP7 31-692); assay: ForteBio Octet, purified Fab
T6 construct: In the TR-FRET assay it carried a fluorophore (hPcsk9-AF); also called hPCSK9; hPcsk9

[2] = target: T6, recombinant human Pcsk9 (aa 31-692) …; assay: Solution Equilibrium Titration (SET), MSD read-out
Method: The binding kinetics of IgGs and Fab fragments were analyzed using a Solution Equilibrium Titration (“SET”) assay. Briefly, serial dilutions of hPCSK9 were added to 60 pM IgG or Fab and incubated overnight. A 96-well Standard Bind microtiter plate (Meso Scale Discovery) was coated with 1 μg/ml hPCSK9 and incubated overnight, washed with PBS/0.05% (w/v) Tween 20, blocked with PBS/5% (w/v) BSA, and washed again. The antibody-antigen preparation was added to the PCSK9-coated Standard Bind plate and incubated for 30 min at room temperature. After three additional washing steps, Sulfo-Tag-labeled goat-anti-human-detection antibody (R32AJ-5, Meso Scale Discovery) was added and incubated one hour at room temperature. After washing the plate three times, Read Buffer (Meso Scale Discovery) was added and electrochemiluminescence (ECL) signals were measured by a Sector Imager 6000 (Meso Scale Discovery). ECL data were processed with the excel add-in XLfit 4.3.2 (ID Business Solutions) using the fitting model applicable for antibodies described in Piehler, et al., (1997) J Immunol Methods 201:189-206.

[3] = target: T7, mouse Pcsk9 with C-terminal his6 tag (mouse, UniProt Q80W65 35-694, limits assumed); assay: not told in the legend
T7 construct: also called murine PCSK9

hAgr2 = target: T1, hAgr2; assay: specificity ELISA on coated antigen (88 ng per well), antibody at 2 µg/mL, ABS650
Method: (§1) For specificity ELISAs on purified human and mouse IgGs, a 384-well plate was coated with a panel of purified human or mouse antigens at 88 ng per well and incubated overnight at 4° C. The plate was blocked and washed as described above, then 22 μL of purified mouse or human anti-PCSK9 antibody diluted to 2 μg/mL in PBS was added to each well. The plate was incubated for 1 hr at 37° C. then washed with PBST. Anti-mouse Fc antibody (Jackson ImmunoResearch Labs #115-035-071) or anti-human kappa antibody (Sigma #A7164) conjugated to HRP was diluted 1:5000 in PBS (25 μL) and added to each well. The plate was incubated for 1 hr at room temperature, then washed and developed as described above.
(§2) In order to test whether the antigen specificity of the parental mouse antibody LFU720 was retained in the final Humaneered™ IgGs, LGT209, LGT210 and LGT211, binding of the antibodies to a panel of human and mouse antigens (as well as human PCSK9) was tested in an ELISA assay.

hFGFR4 = target: T2, hFGFR4; assay: as above
Method: as §1, §2

hNotch-3 NRR = target: T3, hNotch-3 NRR; assay: as above
Method: as §1, §2

hRspo-2 = target: T8, hRspo-2 (human, UniProt Q6UXX9); assay: as above
T8 construct: panel antigen of the specificity ELISA
Method: as §1, §2

hTrkB = target: T9, hTrkB (human, UniProt Q16620); assay: as above
T9 construct: panel antigen of the specificity ELISA
Method: as §1, §2

hIL-12RB1 = target: T10, hIL-12RB1 (human, UniProt P42701); assay: as above
T10 construct: panel antigen of the specificity ELISA
Method: as §1, §2

hGITR = target: T4, hGITR; assay: as above
Method: as §1, §2

hβ-Klotho = target: T5, hβ-Klotho; assay: as above
Method: as §1, §2

hDDR1 = target: T11, hDDR1 (human, UniProt Q08345); assay: as above
T11 construct: panel antigen of the specificity ELISA
Method: as §1, §2

T6 sequence (Q8NBP7 other isoform, or with tags, fused parts or gaps limits assumed, form in doubt): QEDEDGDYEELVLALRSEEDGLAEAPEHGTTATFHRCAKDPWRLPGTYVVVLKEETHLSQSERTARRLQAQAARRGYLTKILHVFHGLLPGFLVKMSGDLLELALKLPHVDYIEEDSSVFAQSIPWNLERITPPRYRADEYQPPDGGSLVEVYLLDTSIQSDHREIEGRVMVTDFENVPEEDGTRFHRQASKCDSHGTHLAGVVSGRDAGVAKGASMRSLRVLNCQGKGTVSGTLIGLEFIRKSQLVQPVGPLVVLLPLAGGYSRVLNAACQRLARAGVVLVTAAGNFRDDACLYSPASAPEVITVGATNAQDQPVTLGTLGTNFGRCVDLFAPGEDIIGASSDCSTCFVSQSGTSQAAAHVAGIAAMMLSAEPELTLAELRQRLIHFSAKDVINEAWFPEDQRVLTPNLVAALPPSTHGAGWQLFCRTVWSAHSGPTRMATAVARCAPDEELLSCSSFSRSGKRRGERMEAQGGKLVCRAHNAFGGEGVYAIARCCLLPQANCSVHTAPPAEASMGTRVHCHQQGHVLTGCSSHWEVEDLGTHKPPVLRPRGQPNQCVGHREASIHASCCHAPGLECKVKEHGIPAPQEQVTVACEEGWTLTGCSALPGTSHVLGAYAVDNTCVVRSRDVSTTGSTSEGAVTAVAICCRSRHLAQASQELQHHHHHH
T9 sequence (Q16620 32-430 limits assumed): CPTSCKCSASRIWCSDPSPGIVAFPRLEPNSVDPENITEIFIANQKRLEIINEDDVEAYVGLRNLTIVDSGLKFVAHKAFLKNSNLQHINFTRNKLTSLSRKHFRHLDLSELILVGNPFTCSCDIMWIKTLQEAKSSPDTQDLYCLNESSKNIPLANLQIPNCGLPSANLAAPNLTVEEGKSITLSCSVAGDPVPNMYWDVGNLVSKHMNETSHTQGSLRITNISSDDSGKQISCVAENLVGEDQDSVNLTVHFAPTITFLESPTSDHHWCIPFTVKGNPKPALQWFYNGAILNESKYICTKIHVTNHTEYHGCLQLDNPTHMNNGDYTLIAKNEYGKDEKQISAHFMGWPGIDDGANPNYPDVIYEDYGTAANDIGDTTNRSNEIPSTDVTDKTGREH
T7 sequence (Q80W65 other isoform, or with tags, fused parts or gaps limits assumed): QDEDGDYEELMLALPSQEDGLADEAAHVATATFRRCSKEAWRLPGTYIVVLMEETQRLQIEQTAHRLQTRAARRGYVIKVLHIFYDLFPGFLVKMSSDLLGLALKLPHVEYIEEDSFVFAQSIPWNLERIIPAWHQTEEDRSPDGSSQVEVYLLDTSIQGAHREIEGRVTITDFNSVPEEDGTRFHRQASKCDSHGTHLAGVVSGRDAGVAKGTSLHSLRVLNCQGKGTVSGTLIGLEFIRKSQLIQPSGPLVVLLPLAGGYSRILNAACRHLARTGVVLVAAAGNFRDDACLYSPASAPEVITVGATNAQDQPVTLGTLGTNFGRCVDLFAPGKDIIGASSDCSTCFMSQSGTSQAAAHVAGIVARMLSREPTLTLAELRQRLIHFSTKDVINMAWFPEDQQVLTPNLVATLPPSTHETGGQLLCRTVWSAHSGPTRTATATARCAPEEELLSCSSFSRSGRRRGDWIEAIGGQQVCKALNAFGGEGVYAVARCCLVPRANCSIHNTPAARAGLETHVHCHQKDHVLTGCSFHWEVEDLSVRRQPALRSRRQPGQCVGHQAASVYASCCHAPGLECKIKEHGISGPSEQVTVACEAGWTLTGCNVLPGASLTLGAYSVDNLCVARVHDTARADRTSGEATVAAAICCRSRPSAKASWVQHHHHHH
T11 sequence (Q08345 21-416 limits assumed): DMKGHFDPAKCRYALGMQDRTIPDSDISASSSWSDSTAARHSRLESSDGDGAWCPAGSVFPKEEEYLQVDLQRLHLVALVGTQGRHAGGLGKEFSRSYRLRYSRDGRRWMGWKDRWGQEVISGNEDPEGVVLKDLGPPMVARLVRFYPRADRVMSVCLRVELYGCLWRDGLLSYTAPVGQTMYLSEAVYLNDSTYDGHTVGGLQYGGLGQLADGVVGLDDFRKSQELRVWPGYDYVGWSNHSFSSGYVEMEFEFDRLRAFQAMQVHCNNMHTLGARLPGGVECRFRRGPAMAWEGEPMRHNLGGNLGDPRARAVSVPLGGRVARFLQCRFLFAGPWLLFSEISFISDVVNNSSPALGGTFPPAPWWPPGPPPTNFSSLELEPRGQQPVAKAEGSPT
T8 sequence (Q6UXX9 22-243 limits assumed): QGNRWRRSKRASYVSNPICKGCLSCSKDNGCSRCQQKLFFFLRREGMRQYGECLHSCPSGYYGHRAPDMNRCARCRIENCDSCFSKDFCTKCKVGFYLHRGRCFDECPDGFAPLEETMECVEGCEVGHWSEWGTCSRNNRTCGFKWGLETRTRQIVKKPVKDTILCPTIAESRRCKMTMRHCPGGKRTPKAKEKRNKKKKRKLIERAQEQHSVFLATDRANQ

| Binder | Kd [1] [nM] | Kd [2] [nM] | binding result [3] | binding result (hAgr2) | binding result (hFGFR4) | binding result (hNotch-3 NRR) | binding result (hRspo-2) | binding result (hTrkB) | binding result (hIL-12RB1) | binding result (hGITR) | binding result (hβ-Klotho) | binding result (hDDR1) |
| --- | --- | --- | --- | --- | --- | --- | --- | --- | --- | --- | --- | --- |
| CDRH1-variant Fab SR079 (Fab, V domains shown, also called SR079 (humaneered)) VH: QVQLVQSGAEVKKPGASVKVSCKASGYTFSTMYMSWVRQAPGQGLEWMGRIDPANGHTNYAQKFQGRVTMTRDTSISTAYMELSRLTSDDTAVYYCARSYYYYAMDYWGQGTLVTVSS VL: EIVMTQSPATLSVSPGERATLSCRASQSVSSSHVAWYQQKPGQAPRLLIYGVFRRATGIPDRFSGSGSGTDFTLTIGRLEPEDFAVYYCLQWSSDPPTFGQGTKLEIK | 54.2 |  |  |  |  |  |  |  |  |  |  |  |
| NVP-LGT209 (antibody, human IgG1, Silent human IgG1 kappa made in 293 Freestyle cells; also called pJG04 (Vh) + pJG10 (Vk)) heavy: not shown light: QIVLTQSPATLSVSPGERATLSCRASQSVSYMHWYQQKPGQAPRLLIYGVFRRATGIPDRFSGSGSGTDFTLTIGRLEPEDFAVYYCLQWSSDPPTFGQGTKLEIKRTVAAPSVFIFPPSDEQLKSGTASVVCLLNNFYPREAKVQWKVDNALQSGNSQESVTEQDSKDSTYSLSSTLTLSKADYEKHKVYACEVTHQGLSSPVTKSFNRGEC |  | 0.19 | no binding | no binding (tested: 2 µg/mL) | no binding (tested: 2 µg/mL) | no binding (tested: 2 µg/mL) | no binding (tested: 2 µg/mL) | no binding (tested: 2 µg/mL) | no binding (tested: 2 µg/mL) | no binding (tested: 2 µg/mL) | no binding (tested: 2 µg/mL) | no binding (tested: 2 µg/mL) |
| NVP-LGT210 (antibody, human IgG1, Silent human IgG1 kappa; also called pJG04 (Vh) + pJG01 (Vk)) heavy: not shown light: EIVMTQSPATLSVSPGERATLSCRASQSVSYMHWYQQKPGQAPRLLIYGVFRRATGIPDRFSGSGSGTDFTLTIGRLEPEDFAVYYCLQWSSDPPTFGQGTKLEIKRTVAAPSVFIFPPSDEQLKSGTASVVCLLNNFYPREAKVQWKVDNALQSGNSQESVTEQDSKDSTYSLSSTLTLSKADYEKHKVYACEVTHQGLSSPVTKSFNRGEC |  | 0.15 | no binding | no binding (tested: 2 µg/mL) | no binding (tested: 2 µg/mL) | no binding (tested: 2 µg/mL) | no binding (tested: 2 µg/mL) | no binding (tested: 2 µg/mL) | no binding (tested: 2 µg/mL) | no binding (tested: 2 µg/mL) | no binding (tested: 2 µg/mL) | no binding (tested: 2 µg/mL) |
